Results taken from paper PMC8648840, “Functional consequences of TCF4 missense substitutions associated with Pitt-Hopkins syndrome, mild intellectual disability, and schizophrenia” (The Journal of Biological Chemistry, 2021).
Residue numbers refer to the chain shown, from its start. Names and notes keep the numbering of the source.

T1: achaete-scute homolog 1 (ASCL1), expressed in cells (UniProt P50553 1-236)
T1 sequence (looked up): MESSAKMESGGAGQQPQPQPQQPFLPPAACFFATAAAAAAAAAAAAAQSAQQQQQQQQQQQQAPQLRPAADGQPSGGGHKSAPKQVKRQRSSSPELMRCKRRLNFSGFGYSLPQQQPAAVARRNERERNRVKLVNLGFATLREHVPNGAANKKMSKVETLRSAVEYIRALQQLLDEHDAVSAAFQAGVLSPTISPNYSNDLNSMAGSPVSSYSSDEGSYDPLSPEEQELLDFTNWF

B1: TCF4-B¯ A587P (natural protein, human, UniProt P15884-3 1-671, looked up)
chain: MHHQQRMAALGTDKELSDLLDFSAMFSPPVSSGKNGPTSLASGHFTGSNVEDRSSSGSWGNGGHPSPSRNYGDGTPYDHMTSRDLGSHDNLSPPFVNSRIQSKTERGSYSSYGRESNLQGCHQQSLLGGDMDMGNPGTLSPTKPGSQYYQYSSNNPRRRPLHSSAMEVQTKKVRKVPPGLPSSVYAPSASTADYNRDSPGYPSSKPATSTFPSSFFMQDGHHSSDPWSSSSGMNQPGYAGMLGNSSHIPQSSSYCSLHPHERLSYPSHSSADINSSLPPMSTFHRSGTNHYSTSSCTPPANGTDSIMANRGSGAAGSSQTGDALGKALASIYSPDHTNNSFSSNPSTPVGSPPSLSAGTAVWSRNGGQASSSPNYEGPLHSLQSRIEDRLERLDDAIHVLRNHAVGPSTAMPGGHGDMHGIIGPSHNGAMGGLGSGYGTGLLSANRHSLMVGTHREDGVALRGSHSLLPNQVPVPQLPVQSATSPDLNPPQDPYRGMPPGLQGQSVSSGSSEIKSDDEGDENLQDTKSSEDKKLDDDKKDIKSITSNNDDEDLTPEQKAEREKERRMANNARERLRVRDINEPFKELGRMVQLHLKSDKPQTKLLILHQAVAVILSLEQQVRERNLNPKAACLKRREEEKVSSEPPPLSLAGPHPGMGDASNHMGQM
B2: TCF4-B¯ N585D (natural protein, human, UniProt P15884-3 1-671, looked up)
chain: B1 chain with N581D, P583A
B3: TCF4-B¯ R569W (natural protein, human, UniProt P15884-3 1-671, looked up)
chain: B1 chain with R565W, P583A
B4: TCF4-B¯ S253R (natural protein, human, UniProt P15884-3 1-671, looked up)
chain: B1 chain with S253R, P583A
B5: Transcription factor 4 isoform TCF4-A¯, wild type (natural protein, human, UniProt P15884-6 1-507, looked up)
chain: MYCAYTIPGMGGNSLMYYYNGKAVYAPSASTADYNRDSPGYPSSKPATSTFPSSFFMQDGHHSSDPWSSSSGMNQPGYAGMLGNSSHIPQSSSYCSLHPHERLSYPSHSSADINSSLPPMSTFHRSGTNHYSTSSCTPPANGTDSIMANRGSGAAGSSQTGDALGKALASIYSPDHTNNSFSSNPSTPVGSPPSLSAGTAVWSRNGGQASSSPNYEGPLHSLQSRIEDRLERLDDAIHVLRNHAVGPSTAMPGGHGDMHGIIGPSHNGAMGGLGSGYGTGLLSANRHSLMVGTHREDGVALRGSHSLLPNQVPVPQLPVQSATSPDLNPPQDPYRGMPPGLQGQSVSSGSSEIKSDDEGDENLQDTKSSEDKKLDDDKKDIKSITSNNDDEDLTPEQKAEREKERRMANNARERLRVRDINEAFKELGRMVQLHLKSDKPQTKLLILHQAVAVILSLEQQVRERNLNPKAACLKRREEEKVSSEPPPLSLAGPHPGMGDASNHMGQM

Target: T1, achaete-scute homolog 1 (ASCL1), …
Assay: cell-based or functional assay

Binder	luciferase reporter (12 μE5 E-boxes, minimal promoter) in HEK293 cells, coexpressed with ASCL1; reduction against WT TCF4-B¯ [fold]	luciferase reporter (12 μE5 E-boxes, minimal promoter) in HEK293 cells, coexpressed with ASCL1; increase against WT TCF4-B¯ [fold]	luciferase reporter in rat primary neurons, basal conditions, coexpressed with ASCL1; increase against WT TCF4-B¯ [fold]	luciferase reporter (12 μE5 E-boxes, TK promoter) in depolarized rat primary neurons; increase when ASCL1 was coexpressed [fold]
B1	4.8			
B2		1.6	2.4	
B3		2.2	2.8	
B4	1.4			
B5				2.5
